Reference: patent publication US20190010228A1 (Genentech, published 2019)
Changes are numbered by the printed parent chain. Numbers in names are those of the source.

T1: human LRP5 domains E3-E4 (E644-Q1263 of SEQ ID NO: 42) (human, UniProt O75197 644-1263)
T1 construct: Soluble fragment made in-house; It was biotinylated for phage sorting; also called LRP5-E3/E4; LRP5E3/E4
T1 sequence: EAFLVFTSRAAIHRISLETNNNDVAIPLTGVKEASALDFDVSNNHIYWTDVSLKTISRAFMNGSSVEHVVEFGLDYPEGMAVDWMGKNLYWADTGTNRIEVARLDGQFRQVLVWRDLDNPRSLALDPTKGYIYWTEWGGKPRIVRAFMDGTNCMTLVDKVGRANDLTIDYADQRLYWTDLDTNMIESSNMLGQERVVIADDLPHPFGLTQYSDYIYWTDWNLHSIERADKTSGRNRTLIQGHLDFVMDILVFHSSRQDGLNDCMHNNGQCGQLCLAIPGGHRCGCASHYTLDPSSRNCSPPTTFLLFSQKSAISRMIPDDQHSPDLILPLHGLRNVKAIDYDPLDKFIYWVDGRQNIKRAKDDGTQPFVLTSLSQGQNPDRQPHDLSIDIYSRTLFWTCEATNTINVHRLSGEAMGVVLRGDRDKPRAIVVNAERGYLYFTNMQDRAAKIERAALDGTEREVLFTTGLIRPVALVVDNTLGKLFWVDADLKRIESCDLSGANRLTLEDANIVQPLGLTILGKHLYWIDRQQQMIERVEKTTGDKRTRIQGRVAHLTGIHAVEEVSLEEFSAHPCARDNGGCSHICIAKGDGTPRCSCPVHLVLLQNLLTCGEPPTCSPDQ

B1: YW629.51 (antibody, human IgG1, V domains shown)
VH: EVQLVESGGGLVQPGGSLRLSCAASGFTFSSYAMHWVRQAPGKGLEWVSRISSNGGSTYYADSVKGRFTISRDNSKNTLYLQMNSLRAEDTAVYYCARWIPQSYPFASYKSGFDYWGQGTLVTVSS
VL: DIQMTQSPSSLSASVGDRVTITCRASQGISSYLAWYQQKPGKAPKLLIYDASSLESGVPSRFSGSGSGTDFTLTISSLQPEDFATYYCQQYYSYPFTFGQGTKVEIKR
notes: also called P6C.51; bivalent LRP5 antibody (P6C.51)
B2: YW629.51.61 (antibody, human IgG1, V domains shown)
VH: B1 VH
VL: B1 VL with G28V, I29M, S30G, S31Y
notes: also called P6C.51.61; PC6.51.61
B3: YW629.42 (antibody, human IgG1, V domains shown)
VH: EVQLVESGGGLVQPGGSLRLSCAASGFTFSSYAMSWVRQAPGKGLEWVGAISSSGSSTYYADSVKGRFTISRDNSKNTLYLQMNSLRAEDTAVYYCARYYRYAPYRSLGMDVWGQGTLVTVSS
VL: B1 VL with D50A, E55Q
notes: also called P6C.42
B4: YW629.42.57 (antibody, human IgG1, V domains shown)
VH: B3 VH with S53A, S54P
VL: B1 VL with D50A, E55Q
notes: also called P6C.42.57
B5: YW629.51.77 (antibody, human IgG1, V domains shown)
VH: B1 VH
VL: B1 VL with G28V, S30Y, S31G, S53T, L54R
notes: also called P6C.51.77
B6: YW629.51.63 (antibody, human IgG1, V domains shown)
VH: B1 VH
VL: B1 VL with G28S, S30Y, S31Y
notes: also called P6C.51.63
B7: YW629.42.65 (antibody, human IgG1, V domains shown)
VH: B3 VH with A50G, S54P
VL: B1 VL with D50A, E55Q, S93L
notes: also called P6C.42.65
B8: YW629.51.13 (antibody, human IgG1, V domains shown)
VH: B1 VH with A107R
VL: B1 VL
notes: also called P6C.51.13
B9: YW629.42.58 (antibody, human IgG1, V domains shown)
VH: B3 VH with S54P, S56W
VL: B1 VL with D50A, E55Q
notes: also called P6C.42.58
B10: YW629.51.78 (antibody, human IgG1, V domains shown)
VH: B1 VH
VL: B1 VL with S30F, S31Y, S53T
notes: also called P6C.51.78
B11: YW629.51.80 (antibody, human IgG1, V domains shown)
VH: B1 VH
VL: B1 VL with G28A, S30Y
notes: also called P6C.51.80

molecular target: LRP5 (transfected into reporter cells); assay: cell-based or functional assay

Question: For B1, which “TOPFlash luciferase reporter, recombinant Norrin (cells transfected with LRP5 and FZD-4)” value is on record?
Answer: > 2 fold

Question: With B2 as the binder, how does the “TOPFlash luciferase reporter, Norrin as ligand (cells transfected with LRP5 and FZD-4)” value read?
Answer: 3 fold

Question: What about the “TOPFlash luciferase reporter, Wnt7b as ligand (cells transfected with LRP5 and FZD-4)” value of the same binder?
Answer: 2 fold

molecular target: T1, human LRP5 domains E3-E4 (E644-Q1263 of …); assay: SPR, BIAcore T100, IgG captured by anti-human Fc, LRP5E3/E4 as analyte, 25 C
Protocol: Binding affinities of anti-LRP5E3/E4 IgGs were measured by Surface Plasmon Resonance (SPR) using a BIAcore™-T100 instrument. Anti-LRP5E3/E4 human IgGs were captured by mouse anti-human Fc antibody (GE Healthcare, cat# BR-1008-39) coated on CM5 biosensor chips to achieve approximately 200 response units (RU). For kinetics measurements, two-fold serial dilutions ([…]) of human LRP5E3/E4 (GNE) were injected in HBS-P buffer (10 mM HEPES, pH 7.4, 0.15 M NaCl, 0.005% surfactant P20) at 25° C. with a flow rate of 30 μl/min. Association rates (kₒₙ) and dissociation rates (koff) were calculated using a simple one-to-one Langmuir binding model (BIAcore Evaluation Software version 2.0.2). The equilibrium dissociation constant (KD) was calculated as the ratio koff/kₒₙ.

Question: How did the Kd turn out when B1 was run?
Answer: 13 nM

Question: And the koff?
Answer: 0.00309 s⁻¹

Question: And the kon?
Answer: 237000 M⁻¹ s⁻¹

Question: Which Kd does the source give for B3 here?
Answer: 51.6 nM

Question: And the koff?
Answer: 0.00116 s⁻¹

Question: And the kon?
Answer: 22600 M⁻¹ s⁻¹

Question: How did the Kd turn out when B2 was run?
Answer: 0.47 nM

Question: What about the koff of the same binder?
Answer: 0.000115 s⁻¹

Question: And the kon?
Answer: 244000 M⁻¹ s⁻¹

Question: Which results are given for B4?
Answer: Kd: 5.42 nM; koff: 0.000163 s⁻¹; kon: 30100 M⁻¹ s⁻¹

Question: For B5, which Kd is on record?
Answer: 0.438 nM

Question: And the koff?
Answer: 0.000165 s⁻¹

Question: And the kon?
Answer: 376000 M⁻¹ s⁻¹

Question: How did the Kd turn out when B6 was run?
Answer: 0.592 nM

Question: What about the koff of the same binder?
Answer: 0.000199 s⁻¹

Question: What about the kon of the same binder?
Answer: 337000 M⁻¹ s⁻¹

Question: Which results are given for B7?
Answer: Kd: 2.54 nM; koff: 9.63e-05 s⁻¹; kon: 37900 M⁻¹ s⁻¹

Question: Which results are given for B8?
Answer: Kd: 1.13 nM; koff: 0.000369 s⁻¹; kon: 327000 M⁻¹ s⁻¹

Question: How did the Kd turn out when B9 was run?
Answer: 2.78 nM

Question: What about the koff of the same binder?
Answer: 8.69e-05 s⁻¹

Question: What about the kon of the same binder?
Answer: 31300 M⁻¹ s⁻¹

Question: For B10, which Kd is on record?
Answer: 0.192 nM

Question: What about the koff of the same binder?
Answer: 7.24e-05 s⁻¹

Question: What about the kon of the same binder?
Answer: 378000 M⁻¹ s⁻¹

Question: For B11, which Kd is on record?
Answer: 0.268 nM

Question: And the koff?
Answer: 0.000104 s⁻¹

Question: What about the kon of the same binder?
Answer: 387000 M⁻¹ s⁻¹
